In the supplement of paper PMC12338614:
± gives the uncertainty stated by the source.

B1: library; numbered along this chain (parent)
chain: MEVVDPQQLGMFTEGELMSVGMDTFIHRIDSTEVIYQPRRKRAKLIGKYLMGDLLGEGSYGKVKEVLDSETLCRRAVKILKKKKLRRIPNGEANVKKEIQLLRRLRHKNVIQLVDVLYNEEKQKMYMVMEYCVCGMQEMLDSVPEKRFPVCQAHGYFCQLIDGLEYLHSQGIVHKDIKPGNLLLTTGGTLKISDLGVAEALHPFAADDTCRTSQGSPAFQPPEIANGLDTFSGFKVDIWSAGVTLYNITTGLYPFEGDNIYKLFENIGKGSYAIPGDCGPPLSDLLKGMLEYEPAKRFSIRQIRQHSWFRKKHPPAEAPVPIPPSPDTKDRWRSMTVVPYLEDLHGADEDEDLFDIEDDIIYTQDFTVPGQVPEEEASHNGQRRGLPKAVCMNGTEAAQLSTKSRAEGRAPNPARKACSASSKIRRLSACKQQ

Variants of: B1
Test: STK11 functional score (HeLa growth suppression), rescaled enrichment; synonymous median = 1, nonsense median = 0 (normalised score)
Settings: with HeLa; variant type: missense
Summary of the method: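 Codon-randomised (POPCode) libraries of codon-optimised STK11 were integrated by Bxb1 at an AAVS1 landing pad in HeLa, in three regions each transfected three times. Integrants (BFP-negative, mCherry-positive) were FACS-sorted 4–5 days after electroporation and grown about two weeks; tiled gDNA amplicons were sequenced on NextSeq (~2 million reads per tile). The functional score is the wild-type-corrected post/pre-selection log ratio, rescaled to synonymous and nonsense medians, merged over codons and replicate transfections, with bootstrapped error.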

| Variant | STK11 functional score |
| --- | --- |
| S69L | 1.24 ± 0.16 |
| K388P | 0.884 ± 0.37 |
| F234E | 1.59 ± 0.46 |
| F234L | 0.75 ± 0.11 |
| N119S | 0.694 ± 0.11 |
| A225G | 1.05 ± 0.26 |
| D359R | 1.52 ± 0.19 |
| C134G | 0.564 ± 0.14 |
| T230H | 1.46 ± 0.38 |
| T230C | 1.19 ± 0.34 |
| E407C | 1.21 ± 0.12 |
| E407T | 1.61 ± 0.28 |
| E407P | 1.6 ± 0.15 |
| L184I | 0.978 ± 0.22 |
| L184C | 0.804 ± 0.36 |
| S142D | 1.52 ± 0.39 |
| N266H | 1.29 ± 0.56 |
| N266K | 0.318 ± 0.26 |
| N266D | 1.13 ± 0.43 |
| N266A | 1.45 ± 0.15 |
| K97V | 0.998 ± 0.2 |
| P281M | 1.31 ± 0.21 |
| S378L | 0.82 ± 0.19 |
| K431Y | 1.48 ± 0.18 |

| Variant | STK11 functional score |
| --- | --- |
| A198Y | 1.04 ± 0.51 |
| A417N | 1.55 ± 0.18 |
| A417C | 1.24 ± 0.52 |
| E65L | 0.5 ± 0.28 |
| G61V | 0.688 ± 0.096 |
| G61P | 0.916 ± 0.26 |
| S325G | 0.96 ± 0.28 |
| S325T | 1.17 ± 0.36 |
| E92F | 1.56 ± 0.53 |
| E92I | -0.0755 ± 0.16 |
| T395E | 1.33 ± 0.25 |
| Y131E | 0.174 ± 0.082 |
| E98I | 0.496 ± 0.18 |
| P203A | 0.904 ± 0.61 |
| G251P | 0.0226 ± 0.16 |
| G251W | -0.00281 ± 0.1 |
| T363I | 0.824 ± 0.19 |
| Q371L | 1.44 ± 0.17 |
| P413E | 1.59 ± 0.25 |
| P413H | 1.61 ± 0.12 |
| D30V | 0.22 ± 0.12 |
| D162V | 1.17 ± 0.11 |
| D229H | 0.539 ± 0.17 |
| Q382I | 1.31 ± 0.26 |

| Variant | STK11 functional score |
| --- | --- |
| V133N | 1.17 ± 0.15 |
| V133W | 0.452 ± 0.079 |
| R297P | -0.429 ± 0.077 |
| R297F | -0.355 ± 0.076 |
| R297D | 0.0713 ± 0.079 |
| E265I | 1.42 ± 0.31 |
| R426I | 1.15 ± 0.49 |
| E130V | 0.458 ± 0.082 |
| H168L | 0.263 ± 0.078 |
| G268D | 1.53 ± 0.19 |
| G268V | 0.743 ± 0.19 |
| G268P | 1.07 ± 0.18 |
| S401T | 0.884 ± 0.64 |
| S31H | -0.108 ± 0.4 |
| H345A | 1.56 ± 0.14 |
| H345L | 1.2 ± 0.16 |
| E145I | 1.14 ± 0.082 |
| A410R | 1.6 ± 0.14 |
| A410W | 1.68 ± 0.24 |
| L80S | 0.479 ± 0.1 |
| L80R | 0.408 ± 0.11 |
| L80W | 1.47 ± 0.25 |
| K84E | 0.845 ± 0.33 |
| V66Y | 1.12 ± 0.38 |

| Variant | STK11 functional score |
| --- | --- |
| V66N | 0.393 ± 0.24 |
| N259R | 1.13 ± 0.46 |
| N259E | 1.47 ± 0.34 |
| A377L | 1.04 ± 0.16 |
| A377G | 1.01 ± 0.21 |
| Q433H | 1.2 ± 0.34 |
| E396S | 1.18 ± 0.19 |
| S271W | 0.443 ± 0.6 |
| V128F | 1.13 ± 0.21 |
| Q302S | 1.47 ± 0.16 |
| F309L | 0.874 ± 0.32 |
| F309D | -0.479 ± 0.093 |
| F309I | 1.38 ± 0.25 |
| R384N | 1.54 ± 0.21 |
| R384C | 1.14 ± 0.5 |
| V338A | 1.56 ± 0.27 |
| R331Y | 1.35 ± 0.16 |
| R331C | 1.38 ± 0.24 |
| R331A | 0.000385 ± 0.16 |
| R331L | 1.2 ± 0.16 |
| P179Y | 0.059 ± 0.1 |
| P179L | 0.376 ± 0.075 |
| Q7C | 1.55 ± 0.45 |
| T249V | 1.56 ± 0.1 |

| Variant | STK11 functional score |
| --- | --- |
| D237H | 1.53 ± 0.7 |
| D237E | 0.97 ± 0.53 |
| L182G | 0.327 ± 0.12 |
| E138L | 1.15 ± 0.22 |
| K287H | 1.3 ± 0.15 |
| K312T | 1.5 ± 0.27 |
| K312D | 1.49 ± 0.22 |
| V372E | 1.23 ± 0.38 |
| R409V | 1.22 ± 0.21 |
| I360V | 1.49 ± 0.28 |
| I360A | 1.6 ± 0.15 |
| A218D | 0.324 ± 0.12 |
| K81R | 1.21 ± 0.16 |
| K81T | 1.35 ± 0.3 |
| V114L | 0.271 ± 0.093 |
| V114S | 0.384 ± 0.1 |
| L341P | 1.54 ± 0.14 |
| P315A | 1.07 ± 0.15 |
| Y253L | 1.27 ± 0.12 |
| Y253S | 0.394 ± 0.12 |
| L290Q | -0.237 ± 0.2 |
| L290E | -0.387 ± 0.062 |
| A273P | 1.4 ± 0.28 |
| E342M | 1.46 ± 0.14 |

| Variant | STK11 functional score |
| --- | --- |
| F298S | 0.975 ± 0.27 |
| R104D | 0.685 ± 0.19 |
| K191L | 0.262 ± 0.11 |
| K191C | 0.0918 ± 0.27 |
| K191G | 0.729 ± 0.12 |
| L45I | 0.969 ± 0.33 |
| Q37H | 0.921 ± 0.36 |
| Q37P | 1.16 ± 0.21 |
| C278M | 1.37 ± 0.14 |
| S283P | 1.15 ± 0.37 |
| D348W | 1.58 ± 0.25 |
| D348V | 0.78 ± 0.44 |
| H174A | 0.322 ± 0.12 |
| K83C | 1.39 ± 0.23 |
| L72T | 1.44 ± 0.48 |
| K41D | 1.39 ± 0.18 |
| S421N | 1.6 ± 0.15 |
| K416N | 0.923 ± 0.4 |
| M136G | -0.14 ± 0.082 |
| E16Q | 1.16 ± 0.77 |
| E16C | 1.38 ± 0.69 |
| M127D | 0.289 ± 0.08 |
| E291K | 1.28 ± 0.62 |
| P321L | 1.17 ± 0.25 |

| Variant | STK11 functional score |
| --- | --- |
| Q8K | 0.838 ± 0.23 |
| L245I | 0.581 ± 0.1 |
| L400W | 1.56 ± 0.3 |
| A397T | 1.51 ± 0.23 |
| G180E | 1.09 ± 0.67 |
| G180M | 0.93 ± 0.82 |
| L286H | 0.00834 ± 0.071 |
| H27Y | 1.24 ± 0.73 |
| H27D | 1.22 ± 0.62 |
| N226V | 0.778 ± 0.56 |
| K403Y | 1.59 ± 0.21 |
| T244S | 0.613 ± 0.1 |
| I111L | 0.392 ± 0.14 |
| I111V | 0.948 ± 0.079 |
| I111R | 1.16 ± 0.13 |
| M335H | -0.482 ± 0.11 |
| E293G | 0.451 ± 0.27 |
| M125R | 0.355 ± 0.099 |
| S334N | 1.58 ± 0.47 |
| N181W | -0.0742 ± 0.09 |
| E375K | 1.56 ± 0.51 |
| K62I | 1.35 ± 0.52 |
| P326M | 1.45 ± 0.12 |
